Measurements taken from paper PMC6658569 (2019).

B1: YhcD (natural protein)
chain: DGIEIAAVDFDRETLKSLGVDPNISHYFSRSARFLPGEYSLIVSVNGEKKGNIATRFDENGDICLDQAFLQQAGLKIPSEEKNGCYDYILSYPGTTITPLPNQEALDIIVSPQAIIPIGLDLTNAATGGTAALLNYSLMSSRAEFSNGSSDYSQAALEGGININDWMLRSHQFLTQTNGTFSNQNSSTYLQRTFTDLKTLMRAGEVNLNNSVLEGASIYGIEIAPDNALQTSGSGVQVTGIANTSQARVEIRQQGVLIHSILVPAGAFTIPDVPVRNGNSDLNVTVVETDGSSHNYIVPSTLFNQHVESFQGYRFAIGRVDDDYDESPWVISASSGWNLTRWSAMNGGVIVAENYQAASIRSSLVPLPDLTVSSQISTSQDTKDSLQGQKYRLDANYNLPFSLGLTTSLTRSDRHYRELSEAIDDDYTDPTKSTYALGLNWSNSILGGFNISGYKTYSYDGDNDSSNLNINWNKAFKHATVSVNWQHQLSASENNEDDGDLFYVNISIPFGRSNTATLYTRHDDHKTHYGTGVMGVVSDEMSYYVNAERDHDERETSLNGSISSNLHYTQVSLAAGASGSDSRTYNGTMSGGIAVHDQGVTFSPWTINDTFAIAKMDNNIAGVRITSQAGPVWTDFRGNAVIPSIQPWRTSGVEIDTASLPKNVDIGNGTKMIKQGRGAVGKVGFSAITQRRALLNITLSDGKKLPRGVAIEDSEGNYLTTSVDDGVVFLNNIKPDMVLDIKDEQQSCRIHLTFPEDAPKDVFYETATGECQ
modifications: NHS ester fluorescent dye (in the MST assay only)
B2: NfrA (natural protein)
chain: DNIGTSAEELGLSDYRHFVIYPRLDKALKAQKNNDEATAIREFEYIHQQVPDNIPLTLYLAEAYRHFGHDDRARLLLEDQLKRHPGDARLERSLAAIPVEVKSVTTVEELLAQQKACDAAPTLRCRSEVGQNALRLAQLPVARAQLNDATFAASPEGKTLRTDLLQRAIYLKQWSQADTLYNEARQQNTLSAAERRQWFDVLLAGQLDDRILALQSQGIFTDPQSYITYATALAYRGEKARLQHYLIENKPLFTTDAQEKSWLYLLSKYSANPVQALANYTVQFADNRQYVVGATLPVLLKEGQYDAAQKLLATLPANEMLEERYAVSVATRNKAEALRLARLLYQQEPANLTRLDQLTWQLMQNEQSREAADLLLQRYPFQGDARVSQTLMARLASLLESHPYLATPAKVAILSKPLPLAEQRQWQSQLPGIADNCPAIVRLLGDMSPSYDAAAWNRLAKCYRDTLPGVALYAWLQAEQRQPSAWQHRAVAYQAYQVEDYATALAAWQKISLHDMSNEDLLAAANTAQAAGNGAARDRWLQQAEKRGLGSNALYWWLHAQRYIPGQPELALNDLTRSINIAPSANAYVARATIYRQRHNVPAAVSDLRAALELEPNNSNTQAALGYALWDSGDIAQSREMLEPAHKGLPDDPALIRQLAYVNQRLDDMPATQHYARLVIDDIDNQALITPLTPEQNQQRFNFRRLHEEVGRRWTFSFDSSIGLRSGAMSTANNNVGGAAPGKSYRSYGQLEAEYRIGRNMLLEGDLLSVYSRVFADTGENGVMMPVKNPMSGTGLRWKPLRDQIFFIAVEQQLPLNGQNGASDTMLRASASFFNGGKYSDEWHPNGSGWFAQNLYLDAAQYIRQDIQAWTADYRVSWHQKVANGQTIEPYAHVQDNGYRDKGTQGAQLGGVGVRWNIWTGETHYDAWPHKVSLGVEYQHTFKAINQRNGERNNAFLTIGVHW
modifications: NHS ester fluorescent dye (in the MST assay only)
B3: HtrE (natural protein)
chain: AELVEYDHTFLMGQNASNIDLSRYSEGNPAIPGVYDVSVYVNDQPIINQSITFVAIEGKKNAQACITLKNLLQFHINSPDINNEKAVLLARDETLGNCLNLTEIIPQASVRYDVNDQRLDIDVPQAWVMKNYQNYVDPSLWENGINAAMLSYNLNGYHSETPGRKNESIYAAFNGGMNLGAWRLRASGNYNWMTDSGSNYDFKNRYVQRDIASLRSQLILGESYTTGETFDSVSIRGIRLYSDSRMLPPTLASFAPIIHGVANTNAKVTITQGGYKIYETTVPPGAFVIDDLSPSGYGSDLIVTIEESDGSKRTFSQPFSSVVQMLRPGVGRWDISGGQVLKDDIQDEPNLFQASYYYGLNNYLTGYTGIQITDNNYTAGLLGLGLNTSVGAFSFDVTHSNVRIPDDKTYQGQSYRVSWNKLFEETSTSLNIAAYRYSTQNYLGLNDALTLIDEVKHPEQDLEPKSMRNYSRMKNQVTVSINQPLKFEKKDYGSFYLSGSWSDYWASGQNRSNYSIGYSNSTSWGSYSVSAQRSWNEDGDTDDSVYLSFTIPIEKLLGTEQRTSGFQSIDTQISSDFKGNNQLNVSSSGYSDNARVSYSVNTGYTMNKASKDLSYVGGYASYESPWGTLAGSISANSDNSRQVSLSTDGGFVLHSGGLTFSNDSFSDSDTLAVVQAPGAQGARINYGNSTIDRWGYGVTSALSPYHENRIALDINDLENDVELKSTSAVAVPRQGSVVFADFETVQGQSAIMNITRSDGKNIPFAADIYDEQGNVIGNVGQGGQAFVRGIEQQGNISIKWLEQSKPVSCLAHYQQSPEAEKIAQSIILNGIRCQIQ
modifications: NHS ester fluorescent dye (in the MST assay only)

What follows are binders tested against human complement C3 (human) (assay: MST).
human complement C3 (human), sequence (chain, as listed by the source, chain 1 of 2): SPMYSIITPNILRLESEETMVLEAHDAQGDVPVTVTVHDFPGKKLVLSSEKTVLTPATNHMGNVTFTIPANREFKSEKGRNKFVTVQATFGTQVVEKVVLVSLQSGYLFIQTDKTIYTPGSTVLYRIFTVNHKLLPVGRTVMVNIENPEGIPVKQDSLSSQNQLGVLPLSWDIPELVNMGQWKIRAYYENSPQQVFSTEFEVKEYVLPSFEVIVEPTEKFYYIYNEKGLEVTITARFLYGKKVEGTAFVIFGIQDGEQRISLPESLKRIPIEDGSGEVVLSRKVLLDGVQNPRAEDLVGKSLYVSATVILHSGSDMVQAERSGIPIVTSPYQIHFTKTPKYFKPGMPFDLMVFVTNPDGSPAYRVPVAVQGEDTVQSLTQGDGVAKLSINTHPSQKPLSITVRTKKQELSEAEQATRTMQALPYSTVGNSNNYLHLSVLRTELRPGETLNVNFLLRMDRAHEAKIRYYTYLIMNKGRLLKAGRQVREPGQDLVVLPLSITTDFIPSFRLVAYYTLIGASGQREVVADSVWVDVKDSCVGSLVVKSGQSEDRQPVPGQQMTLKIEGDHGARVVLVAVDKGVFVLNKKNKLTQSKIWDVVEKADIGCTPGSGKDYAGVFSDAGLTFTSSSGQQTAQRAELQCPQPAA
human complement C3 (human), sequence (chain, as listed by the source, chain 2 of 2): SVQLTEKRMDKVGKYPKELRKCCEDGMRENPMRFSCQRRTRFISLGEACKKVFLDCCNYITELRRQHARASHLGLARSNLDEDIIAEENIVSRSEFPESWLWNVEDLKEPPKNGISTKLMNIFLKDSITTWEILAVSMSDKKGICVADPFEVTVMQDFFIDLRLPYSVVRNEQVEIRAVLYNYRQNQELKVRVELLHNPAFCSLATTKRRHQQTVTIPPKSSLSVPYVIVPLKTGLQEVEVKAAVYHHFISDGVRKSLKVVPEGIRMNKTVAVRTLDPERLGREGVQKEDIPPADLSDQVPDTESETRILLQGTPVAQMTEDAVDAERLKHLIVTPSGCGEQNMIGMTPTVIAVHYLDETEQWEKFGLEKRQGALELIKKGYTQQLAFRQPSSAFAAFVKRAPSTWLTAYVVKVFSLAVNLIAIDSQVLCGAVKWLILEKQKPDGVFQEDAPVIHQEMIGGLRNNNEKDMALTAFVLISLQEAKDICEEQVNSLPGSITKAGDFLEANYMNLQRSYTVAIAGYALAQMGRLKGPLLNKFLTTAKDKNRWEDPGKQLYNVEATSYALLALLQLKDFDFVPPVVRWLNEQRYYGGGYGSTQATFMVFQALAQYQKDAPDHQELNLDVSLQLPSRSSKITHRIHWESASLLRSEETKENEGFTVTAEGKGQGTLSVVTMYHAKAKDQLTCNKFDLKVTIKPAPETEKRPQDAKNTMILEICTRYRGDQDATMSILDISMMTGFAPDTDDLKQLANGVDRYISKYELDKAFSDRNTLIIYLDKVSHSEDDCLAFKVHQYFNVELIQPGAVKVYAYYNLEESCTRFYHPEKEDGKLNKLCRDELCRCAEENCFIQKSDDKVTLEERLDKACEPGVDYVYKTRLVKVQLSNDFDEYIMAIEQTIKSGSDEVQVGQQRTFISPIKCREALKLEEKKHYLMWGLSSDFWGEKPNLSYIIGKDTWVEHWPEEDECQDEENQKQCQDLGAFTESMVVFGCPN

Point of comparison: B2, Kd 1.3 µM. Against it:
- B1 — 6.8-fold higher, 8.9 µM
- B3 — 4.2-fold higher, 5.4 µM
